Results reported in publication doi:10.1101/093054 (bioRxiv, 2016).

T1: SPD-5::TagRFP (C. elegans, UniProt P91349 1-1198)
T1 sequence (looked up): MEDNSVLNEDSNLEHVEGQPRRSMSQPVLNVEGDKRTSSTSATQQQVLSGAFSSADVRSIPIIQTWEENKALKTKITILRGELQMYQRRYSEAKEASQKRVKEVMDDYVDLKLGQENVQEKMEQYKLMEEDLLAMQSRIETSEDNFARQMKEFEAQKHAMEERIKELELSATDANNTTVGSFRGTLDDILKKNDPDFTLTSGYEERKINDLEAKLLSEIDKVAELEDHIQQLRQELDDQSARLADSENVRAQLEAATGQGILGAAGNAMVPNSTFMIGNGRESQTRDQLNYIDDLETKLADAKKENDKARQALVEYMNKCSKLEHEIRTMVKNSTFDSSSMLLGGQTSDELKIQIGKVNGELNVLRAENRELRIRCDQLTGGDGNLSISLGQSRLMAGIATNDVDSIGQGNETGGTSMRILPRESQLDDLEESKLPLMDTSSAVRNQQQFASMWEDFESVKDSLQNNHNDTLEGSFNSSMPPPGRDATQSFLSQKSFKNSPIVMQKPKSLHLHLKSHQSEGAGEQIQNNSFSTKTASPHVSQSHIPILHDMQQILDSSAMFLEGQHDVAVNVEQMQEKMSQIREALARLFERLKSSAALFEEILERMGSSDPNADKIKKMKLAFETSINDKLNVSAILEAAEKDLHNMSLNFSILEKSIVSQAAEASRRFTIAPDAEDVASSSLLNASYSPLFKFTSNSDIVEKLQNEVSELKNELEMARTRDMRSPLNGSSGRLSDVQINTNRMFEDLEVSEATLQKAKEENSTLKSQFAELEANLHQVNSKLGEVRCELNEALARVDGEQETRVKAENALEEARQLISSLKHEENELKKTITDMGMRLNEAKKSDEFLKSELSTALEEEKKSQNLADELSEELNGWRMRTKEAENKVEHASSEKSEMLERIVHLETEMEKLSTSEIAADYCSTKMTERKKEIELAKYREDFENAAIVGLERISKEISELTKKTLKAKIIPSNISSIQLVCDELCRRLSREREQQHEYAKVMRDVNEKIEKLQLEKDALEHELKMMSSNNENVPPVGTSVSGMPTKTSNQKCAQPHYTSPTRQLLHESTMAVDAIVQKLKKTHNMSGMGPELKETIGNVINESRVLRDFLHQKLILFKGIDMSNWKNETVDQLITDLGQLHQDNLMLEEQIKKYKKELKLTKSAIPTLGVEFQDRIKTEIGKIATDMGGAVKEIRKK

T2: SPD-5::TagRFP (C. elegans), P91349
T2 chain: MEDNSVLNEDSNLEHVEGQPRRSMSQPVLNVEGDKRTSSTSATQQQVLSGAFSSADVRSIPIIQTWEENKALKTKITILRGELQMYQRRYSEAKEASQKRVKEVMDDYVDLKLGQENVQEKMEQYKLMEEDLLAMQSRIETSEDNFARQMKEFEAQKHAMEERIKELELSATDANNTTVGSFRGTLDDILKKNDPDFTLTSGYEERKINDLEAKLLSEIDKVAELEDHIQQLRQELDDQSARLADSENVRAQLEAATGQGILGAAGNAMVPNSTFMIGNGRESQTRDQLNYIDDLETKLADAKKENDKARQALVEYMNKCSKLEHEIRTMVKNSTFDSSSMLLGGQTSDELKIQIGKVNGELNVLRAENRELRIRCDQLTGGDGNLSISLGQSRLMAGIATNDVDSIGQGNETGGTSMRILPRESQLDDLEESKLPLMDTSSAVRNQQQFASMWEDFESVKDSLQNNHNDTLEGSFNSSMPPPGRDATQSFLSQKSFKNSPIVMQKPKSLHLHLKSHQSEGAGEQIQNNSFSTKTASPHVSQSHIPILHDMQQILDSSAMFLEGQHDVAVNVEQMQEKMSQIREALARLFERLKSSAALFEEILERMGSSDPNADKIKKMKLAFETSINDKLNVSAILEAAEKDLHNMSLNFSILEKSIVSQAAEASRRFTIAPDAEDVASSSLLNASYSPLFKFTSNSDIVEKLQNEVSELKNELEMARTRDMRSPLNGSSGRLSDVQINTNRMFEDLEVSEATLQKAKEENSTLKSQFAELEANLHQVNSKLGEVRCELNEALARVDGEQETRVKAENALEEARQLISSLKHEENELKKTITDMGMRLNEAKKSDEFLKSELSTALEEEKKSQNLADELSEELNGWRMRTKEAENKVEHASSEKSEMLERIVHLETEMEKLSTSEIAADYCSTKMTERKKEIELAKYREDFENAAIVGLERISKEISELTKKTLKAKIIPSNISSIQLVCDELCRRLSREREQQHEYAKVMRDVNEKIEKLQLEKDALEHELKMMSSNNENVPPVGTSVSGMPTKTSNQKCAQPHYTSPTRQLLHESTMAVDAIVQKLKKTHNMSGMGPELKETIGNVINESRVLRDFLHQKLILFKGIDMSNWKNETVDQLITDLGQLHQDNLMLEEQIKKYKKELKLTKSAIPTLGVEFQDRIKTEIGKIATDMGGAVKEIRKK


Experiments:
SPD-5::TagRFP = target: T1, SPD-5::TagRFP; assay: partitioning into droplets by fluorescence microscopy
[1] = target: T2, SPD-5::TagRFP (C. elegans), P91349; assay: as above; settings: remark: other sources report otherwise

partition coefficient (droplet vs. bulk) (SPD-5::TagRFP) | partition coefficient (droplet vs. bulk) [1] | Molecule
59 |  | TPXL-1::GFP (natural protein)
101 |  | ZYG-9::GFP (natural protein, C. elegans, UniProt G5EEM5 1-1415, looked up) MSNWDYLDEVDILPKLPPNFDELRESKKWQERKEALEALLKVLTDNERLSTKASYAELIGHLQMVLAKDANINCQALAAKCIGKFATGLRAKFSSFAGPLLPVIFEKMKEKKPMLREPLVDCSNEVGRTMQSLETGQEDILAALAKPNPQIKQQTALFVARQLDLVVPAKQPKGFIKAVVPVFGKLTGDADQDVREASLQGLGAVQRIIGDKNVKNLLGDASSDEGKMKKIGEYAEKSTASFAEEQAKNAPPVAPTSSTPSASAASGDPSGGTATAVVSSGAPVAEADPWDFLDAFDVLSKMPDGFDTNIESKKWQERKEALEGLLQLITANPKLDPKANYGALVERLQKVLEKDANINVAALAANCITGIANGLRTKFQPFAVSVTPIIFEKFKEKKPTLRDPLVACIDAVVATTNLEAVGEIVLAALGKPNPSIKTQTDLFLQRCFMKLNSQTMPKKTLKTLIPSLIKHSGDSDSEVREASYAAMGAMMRAIGEKPSLQLLADIASDNLKMSKIKEFHQKALDEAGPAEIAEMVKSIHKADAPPAAAPPKKTAPPKKQPEDEEVVEEEDEPLKPPPGDKKKKVPVKENEENEPPVVAPKAELLLSDNEDKKQRIKEEKQLKLVKWNFQAPTDEHISQLQTLLGNQAKVSLMSQLFHKDFKQHLAALDSLVRLADTSPRSLLSNSDLLLKWCTLRFFETNPAALIKVLELCKVIVELIRDTETPMSQEEVSAFVPYLLLKTGEAKDNMRTSVRDIVNVLSDVVGPLKMTPMLLDALKSKNARQRSECLLVIEYYITNAGISPLKSLSVEKTVAPFVGDKDVNVRNAAINVLVACFKFEGDQMWKAAGRMADKDKSLVEERIKRTGVKPGSGVVTSPPTGGPKILVPQQQGSVVRRPASRSRTREPEPEEVQSDTFTIRQDTMPPKTSSRYALRDDVFSSAMGRLDGTQVITPPQPVNGWSNNTFQMKRTNSSSSISSIDTSDQIQRSINNISSSLADVAQDAMFQVTYVLNQPEQRHLVDRRADLVFRASAAQLDLVIEEFNAGRDVSGTMDACTQMLFILMGGVETEHGLEPLNASPDTVKAIISSVLRCIIQIGNTESGYGMARSLNRLAMRLIYRVELSNLLCGLILAMTESLQMNTGITELVSKLSSKWCDELEKRRAQLRASDIVDSFNAFYVCALTELKMDISDSHILIVDNYLERVILQQGDVVLDAARRLSRPHMHLTSMINKILQMMRERKIDPIMPGTLEARMPQEDEAVVVRSGVQVSIDNILRDTSMAVKHIEQLNILIASSDRSWNEYMEYLKNNPMGELIKELVGECSRKKRIDFNLSHVVKSSMAVFKAMAATGPVQEEGRITPTDINRMDTMIVGTPLSRGDATITRARGNMIRPKRTTLSRDQMANIRHTLDRVKNH
 | 19.8 | PLK-1::GFP, P34331 1-648 (enzyme) MNRLPNIAKPPQKSNQRKEKAPPEVPALIADKDRGTYYEKGRFLGKGGFAHCYELTNRATREVVAGKVVPKSMLVKQYQRDKMTQEVQIHRELGHINIVKLFNFFEDNLNVYITLELCARRSLMELHKRRKAVTEPEARYFTHQIVDGVLYLHDLNIIHRDMKLGNLFLNDDLVVKIGDFGLATTVNGDERKKTLCGTPNYIAPEVLNKAGHSFEVDIWAVGCILYILLFGQPPFESKSLEETYSRIRHNNYTIPSIATQPAASLIRKMLDPEPTRRPTAKQVQRDGFFKSGFMPTRLPVSCLTMVPKFGGHETSMMEENVAPRGVDARSQRPLNGRAGLSALPQHIVSNNADRERAQQQAAEATFREPEDAYLSQLFHQVAVLLEQRIPGLEEEEAALDGYQSPECLPVFWISKWVDYSDKYGIGYQLCDNSVGVLFNDNSRIMLDQAGNELTYIEKSNKEHYFSMHSGEMPGLLNKKVTLLKYFRSYMNDHLVKAGEGSEQRAGDDLARLPTLRVWFRTKSAIVLHLSNGTVQINFFNDHVKMMMCPLMQAVTFIDQNKRMLTYKLNNLQRNGCPEKFLHRLKYAKTMIERLMSDANVVSQNPARQPDMPRSMAAARSASAGSRGPNQAASHLPQSASGSNIHPRR

More lines, now with the values behind:

Molecule | partition coefficient (droplet vs. bulk) (SPD-5::TagRFP) | partition coefficient (droplet vs. bulk) [1]
EB1-GFP (natural protein, UniProt Q15691 1-268, looked up) MAVNVYSTSVTSDNLSRHDMLAWINESLQLNLTKIEQLCSGAAYCQFMDMLFPGSIALKKVKFQAKLEHEYIQNFKILQAGFKRMGVDKIIPVDKLVKGKFQDNFEFVQWFKKFFDANYDGKDYDPVAARQGQETAVAPSLVAPALNKPKKPLTSSSAAPQRPISTQRTAAAPKAGPGVVRKNPGVGNGDDEAAELMQQVNVLKLTVEDLEKERDFYFGKLRNIELICQENEGENDPVLQRIVDILYATDEGFVIPDEGGPQEEQEEY | 3.2 | 
GFP::SPD-2 (natural protein, C. elegans, UniProt P91870 1-824, looked up) MEDDAPMNLCNEQFEEIEDSPIDDNDNESFYNADGDVELEEEEVHETPKNFKNGGRFKTNMTNPKVNDLTTIEEKNEDLRSAASSRSASRPASVMSDKSFSSQFEFQSGGENAIEEYTNQVFADENKADLLFPETSKFMNGASPPKDKHHSWEPSIHHYDKQPPPDIQTNSPVFGNLNHRKNKLIPQARAKPGANDNEIVERDNDENVPTTSDKSAFITSPMNSTNHDEKTSTPKRPTNRKIGQYQGPNFDLSSIYVGSPQHQNTSISTGQQMPTSSYSHAHSETMMTNQTINESMVRRVLNGNNKNQDLFAALEEARKRRAAQPSKPDFRINTTRTRVPIKPTSARHSGNVVSSTSNDNTTAASSKDLTTSRKAMETFRQNASMADATNSNTASMTSILSTISTARTDISRSSRNHGGGFSNTSVSTVIPANNGNVSLSHGRDGRDSVSSVRTMSRASSTSTVYAGSTFSGVSKPLRIHAKRVAFGCVAVGETLRVEVEVENISDRQCLVRASTDSTTPVYQILDNKLTMVDPKKSIKFQVSFSPSSVGRYQVIMSIEVPAQNFIHKIPMWGNGGIAKFVPTSPDLQQTINQSEYAMCTSCAKRISFKISNSAGTRDGFAMIKVFDSAMRQLPDGCVAFFPAPGFIVKKKSDKRVDIRIDSSYIDLHDENNFRTSSSLSTASTTSSFQRRILPGAKFFVHVVWGEETMRTRLRLLEVRTGQHQLIDGHDFTSFQFSDEEVLRAVPVGFPAIKPEDRDLFAASYRSFFINFFTSTTEFRAATSRKKKEICSNDDSTLLETTAFRNQTFVNDVTIVPNTRFSNRK | 67 | 
